Measured values from patent US20240024505A1.

Target: mRXFP1 (UniProt Q9HBX9)
Assay: cell-based or functional assay

mRXFP1, sequence (Q9HBX9 whole entry): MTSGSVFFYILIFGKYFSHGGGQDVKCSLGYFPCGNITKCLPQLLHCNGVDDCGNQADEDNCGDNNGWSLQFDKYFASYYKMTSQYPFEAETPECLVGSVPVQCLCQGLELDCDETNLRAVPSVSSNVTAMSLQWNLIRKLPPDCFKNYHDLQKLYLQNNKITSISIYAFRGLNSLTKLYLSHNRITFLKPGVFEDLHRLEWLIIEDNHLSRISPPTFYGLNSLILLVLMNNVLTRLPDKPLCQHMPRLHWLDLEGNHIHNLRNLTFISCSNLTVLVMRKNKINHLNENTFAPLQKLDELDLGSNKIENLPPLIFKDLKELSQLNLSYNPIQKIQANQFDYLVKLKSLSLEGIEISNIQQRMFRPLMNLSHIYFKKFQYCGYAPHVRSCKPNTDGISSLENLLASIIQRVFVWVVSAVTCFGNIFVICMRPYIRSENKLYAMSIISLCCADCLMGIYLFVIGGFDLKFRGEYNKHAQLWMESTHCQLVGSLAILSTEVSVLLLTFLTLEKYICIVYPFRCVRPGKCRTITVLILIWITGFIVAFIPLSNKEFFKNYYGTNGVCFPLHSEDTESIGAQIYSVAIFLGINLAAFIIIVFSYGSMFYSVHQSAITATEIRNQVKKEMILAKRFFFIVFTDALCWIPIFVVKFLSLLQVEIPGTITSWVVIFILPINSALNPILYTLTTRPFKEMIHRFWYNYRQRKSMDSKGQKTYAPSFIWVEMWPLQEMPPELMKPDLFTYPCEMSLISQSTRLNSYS

- intracellular cAMP in human fibroblast-like synoviocytes: > 15 fold
Substance: recombinant RLX (serelaxin) (from UniProt P04090 25-53; P04090 162-185) (ligand)
